Source: US20250101117A1 (Genentech, published 2025)

Target: T1, oncostatin M receptor-beta (OSMRβ) (human, UniProt Q99650 28-979)
T1 sequence (looked up): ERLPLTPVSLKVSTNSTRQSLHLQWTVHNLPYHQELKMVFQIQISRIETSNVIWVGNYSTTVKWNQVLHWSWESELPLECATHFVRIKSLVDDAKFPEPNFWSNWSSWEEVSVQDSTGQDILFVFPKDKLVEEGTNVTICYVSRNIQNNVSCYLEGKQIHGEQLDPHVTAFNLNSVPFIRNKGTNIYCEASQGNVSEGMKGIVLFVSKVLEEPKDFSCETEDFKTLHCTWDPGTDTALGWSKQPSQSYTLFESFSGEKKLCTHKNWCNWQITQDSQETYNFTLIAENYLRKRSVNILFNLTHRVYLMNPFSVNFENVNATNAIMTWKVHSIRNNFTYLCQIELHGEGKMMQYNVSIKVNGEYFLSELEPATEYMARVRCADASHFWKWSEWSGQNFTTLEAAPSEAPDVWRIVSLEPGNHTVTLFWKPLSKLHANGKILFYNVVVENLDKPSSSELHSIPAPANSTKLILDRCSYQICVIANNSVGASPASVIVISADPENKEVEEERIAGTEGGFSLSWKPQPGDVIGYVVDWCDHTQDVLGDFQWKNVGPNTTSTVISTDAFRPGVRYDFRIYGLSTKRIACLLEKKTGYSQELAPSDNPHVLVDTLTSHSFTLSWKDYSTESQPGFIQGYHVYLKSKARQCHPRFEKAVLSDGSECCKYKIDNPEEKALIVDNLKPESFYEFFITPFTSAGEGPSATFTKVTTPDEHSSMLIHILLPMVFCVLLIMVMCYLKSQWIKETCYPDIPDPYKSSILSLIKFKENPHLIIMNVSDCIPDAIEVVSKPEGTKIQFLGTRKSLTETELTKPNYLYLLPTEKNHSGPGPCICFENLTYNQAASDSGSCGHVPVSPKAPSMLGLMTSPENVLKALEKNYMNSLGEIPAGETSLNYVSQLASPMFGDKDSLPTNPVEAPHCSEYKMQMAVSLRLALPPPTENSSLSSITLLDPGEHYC
Experiment: cell-based or functional assay

Mean of IC50, inhibition of OSM-induced pSTAT3; IBD-derived intestinal fibroblasts, [OSM] 1 ng/mL (standard deviation 0.05): 0.14 nM
Mean of IC50, inhibition of OSM-induced pSTAT3; IBD-derived intestinal fibroblasts, [OSM] 10 ng/mL (standard deviation 0.36): 1.15 nM
Mean of IC50, inhibition of OSM-induced pSTAT3; normal keratinocytes, [OSM] 10 ng/mL (standard deviation 0.18): 0.36 nM
B1: Vixarelimab (antibody, human IgG4 S228P, lambda, N297Q, V domains shown)
VH: QVQLVQSGAEVKKPGASVKVSCKASGYTFTSYEINWVRQATGQGLEWMGWMNPNSGYTGYAQKFQGRVTMTRDTSISTAYMEMSSLRSEDTAVYYCARDIVAANTDYYFYYGMDVWGQGTTVTVSS
VL: QSVLTQPPSASGTPGQRVTISCSGSNSNIGSNTVNWYHQLPGTAPKLLIYNINKRPSGVPDRFSGSKSGSSASLAISGLQSEDEADYYCSTWDDSLDGVVFGGGTKLTVLG
